For the data set, the target named is VEE capsid protein (Venezuelan equine encephalitis virus, UniProt P09592 P09592:1-275). The experiment in a line: EMSA. The note with it: label: biotin. In general terms: A gel shift assay detects complexes by their altered migration in electrophoresis.

Here are results for two molecules from US20060172925, “Thio-siRNA aptamers” (Board Of Regents, The University Of Texas System, published 2006).

Chain of VEE capsid protein (P09592 1-275, one chain of several): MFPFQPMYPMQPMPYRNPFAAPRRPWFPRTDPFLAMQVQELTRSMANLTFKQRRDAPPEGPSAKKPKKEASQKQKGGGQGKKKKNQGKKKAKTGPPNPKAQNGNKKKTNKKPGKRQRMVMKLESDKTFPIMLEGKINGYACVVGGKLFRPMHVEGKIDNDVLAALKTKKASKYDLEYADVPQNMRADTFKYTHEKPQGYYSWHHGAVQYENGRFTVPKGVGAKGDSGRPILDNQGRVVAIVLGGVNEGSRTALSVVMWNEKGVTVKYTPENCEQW

B1: KLG_5_46 (ssRNA)
RNA: GGGAGCUCAGAAUAAACGCUCAAGGCCCUUGCGCCCACACGCAAGC
As for B1, the binding result is recorded as “binds”.

B2: KLG_M_45 (ssRNA)
RNA: GGUUGCGCCCACACGCAAACACCGCCCUUCGACAUGAGGCCCGGC
As for B2, the binding result was “binds”.
